The supplement of paper PMC10567573

B1: TNXB (parent)
chain: FSEIRETSAKVNWMPPPSRADSFK

Variants of: B1
Test: protein stability index of a GFP-peptide fusion (GPS, HEK-293T) (PSI 1-6); higher = more stable
Conditions: c terminus: a fixed tail appended
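Also: lentivirally expressed fusions sorted by FACS into six bins by GFP to DsRed ratio, PSI derived from sequencing read proportions per bin multiplied by bin number.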

Going from FSEIRETSAKVNWMIPPSRADSFK to FSEIRETSAKVNWMKPPSRADSFK, the protein stability index rises from 2.18 to 3.33.

Compared with FSEIRETSAKVNWMEPPSRADSFK, FSEIRETSAKVNWMWPPSRADSFK is lower in protein stability index: 3.49 for the first, 2.56 for the second.

First: FSEIRETSAKVNWMGPPSRADSFK
Second: FSEIRETSAKVNWMAPPSRADSFK
The protein stability index of the first is lower: 3.29 for the first, 3.51 for the second.

First: FSEIRETSAKVNWMQPPSRADSFK
Second: FSEIRETSAKVNWMFPPSRADSFK
The protein stability index of the first is higher: 3.36 for the first, 2.46 for the second.

Going from FSEIRETSAKVNWMSPPSRADSFK to FSEIRETSAKVNWMHPPSRADSFK, the protein stability index rises from 3.15 to 3.42.

Going from FSEIRETSAKVNWMTPPSRADSFK to FSEIRETSAKVNWMCPPSRADSFK, the protein stability index falls from 3.38 to 2.71.

Compared with FSEIRETSAKVNWMYPPSRADSFK, FSEIRETSAKVNWMRPPSRADSFK is higher in protein stability index: 2.22 for the first, 3.21 for the second.

Compared with FSEIRETSAKVNWMDPPSRADSFK, FSEIRETSAKVNWMMPPSRADSFK is lower in protein stability index: 3.85 for the first, 3.27 for the second.

Going from FSEIRETSAKVNWMNPPSRADSFK to FSEIRETSAKVNWMVPPSRADSFK, the protein stability index rises from 3.12 to 3.48.

First: FSEIRETSAKVNWMLPPSRADSFK
Second: FSEIRETSAKVTWMPPPSRADSFK
The protein stability index of the first is higher: 3.21 for the first, 2.9 for the second.

First: FSEIRETSAKVDWMPPPSRADSFK
Second: FSEIRETSAKVQWMPPPSRADSFK
The protein stability index of the first is higher: 3.83 for the first, 3.04 for the second.

First: FSEIRETSAKVVWMPPPSRADSFK
Second: FSEIRETSAKVSWMPPPSRADSFK
The protein stability index of the first is lower: 1.95 for the first, 3.38 for the second.

First: FSEIRETSAKVHWMPPPSRADSFK
Second: FSEIRETSAKVIWMPPPSRADSFK
The protein stability index of the first is lower: 2.71 for the first, 3.24 for the second.

First: FSEIRETSAKVYWMPPPSRADSFK
Second: FSEIRETSAKVWWMPPPSRADSFK
The protein stability index of the first is lower: 2.09 for the first, 2.2 for the second.

Going from FSEIRETSAKVGWMPPPSRADSFK to FSEIRETSAKVPWMPPPSRADSFK, the protein stability index falls from 3.35 to 3.17.

First: FSEIRETSAKVEWMPPPSRADSFK
Second: FSEIRETSAKVMWMPPPSRADSFK
The protein stability index of the first is higher: 3.46 for the first, 2.04 for the second.

Going from FSEIRETSAKVRWMPPPSRADSFK to FSEIRETSAKVKWMPPPSRADSFK, the protein stability index rises from 2.62 to 2.88.

Going from FSEIRETSAKVAWMPPPSRADSFK to FSEIRETSAKVFWMPPPSRADSFK, the protein stability index rises from 2.14 to 2.96.

Compared with FSEIRETSAKWNWMPPPSRADSFK, FSEIRETSAKTNWMPPPSRADSFK is higher in protein stability index: 2.73 for the first, 3.72 for the second.

Compared with FSEIRETSAKYNWMPPPSRADSFK, FSEIRETSAKVNRMPPPSRADSFK is higher in protein stability index: 2.7 for the first, 4.21 for the second.

Compared with FSEIRETSAKVNKMPPPSRADSFK, FSEIRETSAKVNVMPPPSRADSFK is lower in protein stability index: 4.55 for the first, 4.17 for the second.

Going from FSEIRETSAKVNEMPPPSRADSFK to FSEIRETSAKVNSMPPPSRADSFK, the protein stability index falls from 4.94 to 3.83.

Compared with FSEIRETSAKVNFMPPPSRADSFK, FSEIRETSAKVNHMPPPSRADSFK is higher in protein stability index: 3.57 for the first, 3.61 for the second.

First: FSEIRETSAKVNYMPPPSRADSFK
Second: FSEIRETSAKVNPMPPPSRADSFK
The protein stability index of the first is lower: 4.06 for the first, 4.43 for the second.

Compared with FSEIRETSAKVNCMPPPSRADSFK, FSEIRETSAKVNMMPPPSRADSFK is lower in protein stability index: 4.27 for the first, 3.98 for the second.

Going from FSEIRETSAKVNNMPPPSRADSFK to FSEIRETSAKVNQMPPPSRADSFK, the protein stability index falls from 4.49 to 4.23.

Compared with FSEIRETSAKVNLMPPPSRADSFK, FSEIRETSAKVNTMPPPSRADSFK is higher in protein stability index: 4 for the first, 4.03 for the second.

Going from FSEIRETSAKVNGMPPPSRADSFK to FSEIRETSAKVNDMPPPSRADSFK, the protein stability index rises from 4.15 to 4.8.

First: FSEIRETSAKVNIMPPPSRADSFK
Second: FSEIRETSAKVNAMPPPSRADSFK
The protein stability index of the first is higher: 4.47 for the first, 4.11 for the second.

Compared with FSEIRETSAKVNWEPPPSRADSFK, FSEIRETSAKVNWHPPPSRADSFK is lower in protein stability index: 4.11 for the first, 3.44 for the second.

First: FSEIRETSAKVNWLPPPSRADSFK
Second: FSEIRETSAKVNWVPPPSRADSFK
The protein stability index of the first is higher: 3.31 for the first, 2.96 for the second.

First: FSEIRETSAKVNWSPPPSRADSFK
Second: FSEIRETSAKVNWNPPPSRADSFK
The protein stability index of the first is higher: 3.92 for the first, 3.4 for the second.

Going from FSEIRETSAKVNWCPPPSRADSFK to FSEIRETSAKVNWYPPPSRADSFK, the protein stability index rises from 2.63 to 2.64.

Going from FSEIRETSAKVNWAPPPSRADSFK to FSEIRETSAKVNWWPPPSRADSFK, the protein stability index falls from 3.17 to 2.98.

First: FSEIRETSAKVNWRPPPSRADSFK
Second: FSEIRETSAKVNWDPPPSRADSFK
The protein stability index of the first is higher: 4.26 for the first, 3.91 for the second.

First: FSEIRETSAKVNWFPPPSRADSFK
Second: FSEIRETSAKVNWQPPPSRADSFK
The protein stability index of the first is lower: 3.13 for the first, 3.92 for the second.

Going from FSEIRETSAKVNWGPPPSRADSFK to FSEIRETSAKVNWIPPPSRADSFK, the protein stability index falls from 3.63 to 3.11.

Compared with FSEIRETSAKVNWKPPPSRADSFK, FSEIRETSAKVNWMPGPSRADSFK is lower in protein stability index: 3.52 for the first, 2.8 for the second.

First: FSEIRETSAKVNWMPSPSRADSFK
Second: FSEIRETSAKVNWMPAPSRADSFK
The protein stability index of the first is higher: 3.69 for the first, 3.05 for the second.

Compared with FSEIRETSAKVNWMPTPSRADSFK, FSEIRETSAKVNWMPYPSRADSFK is lower in protein stability index: 3.27 for the first, 2.67 for the second.

Going from FSEIRETSAKVNWMPWPSRADSFK to FSEIRETSAKVNWMPNPSRADSFK, the protein stability index rises from 1.82 to 2.89.

Compared with FSEIRETSAKVNWMPQPSRADSFK, FSEIRETSAKVNWMPIPSRADSFK is lower in protein stability index: 3.23 for the first, 3.15 for the second.

Going from FSEIRETSAKVNWMPVPSRADSFK to FSEIRETSAKVNWMPCPSRADSFK, the protein stability index falls from 3.41 to 3.14.

First: FSEIRETSAKVNWMPMPSRADSFK
Second: FSEIRETSAKVNWMPRPSRADSFK
The protein stability index of the first is higher: 2.89 for the first, 2.87 for the second.

First: FSEIRETSAKVNWMPDPSRADSFK
Second: FSEIRETSAKVNWMPEPSRADSFK
The protein stability index of the first is lower: 3.03 for the first, 3.52 for the second.

Compared with FSEIRETSAKVNWMPLPSRADSFK, FSEIRETSAKVNWMPFPSRADSFK is lower in protein stability index: 3.02 for the first, 2.67 for the second.

Compared with FSEIRETSAKVNWMPKPSRADSFK, FSEIRETSAKVNWMPHPSRADSFK is lower in protein stability index: 3.33 for the first, 3.05 for the second.
